This is an account of results in patent US20230183713A1, “SITE-SPECIFIC RECOMBINASES FOR EFFICIENT AND SPECIFIC GENOME EDITING” (TECHNISCHE UNIVERSITÄt DRESDEN, published 2023).

Numbering of substitutions follows the chain as printed. Numbers in names are those of the source.

Data set [1] has as its target T1, Cre recombinase monomer with R292E mutation.
T1 chain: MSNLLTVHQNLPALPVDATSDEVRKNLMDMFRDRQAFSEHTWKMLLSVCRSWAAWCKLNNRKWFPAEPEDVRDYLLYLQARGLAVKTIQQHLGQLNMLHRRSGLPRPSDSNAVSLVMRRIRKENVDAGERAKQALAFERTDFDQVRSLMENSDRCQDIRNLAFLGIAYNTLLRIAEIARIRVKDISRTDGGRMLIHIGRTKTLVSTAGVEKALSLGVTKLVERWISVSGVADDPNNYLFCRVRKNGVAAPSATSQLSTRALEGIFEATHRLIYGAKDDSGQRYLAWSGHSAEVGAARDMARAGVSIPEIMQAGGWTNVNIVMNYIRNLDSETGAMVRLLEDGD

Data set [2] has as its target T2, Cre recombinase monomer with K201A mutation.
T2 chain: T1 chain with K201A, E292R

For data set [3], the target named is T3, Cre recombinase monomer with Q311R mutation.
T3 chain: T1 chain with E292R, Q311R

In data set [4] the target is T4, Cre recombinase monomer with R292A mutation.
T4 chain: T1 chain with E292A

Data set [5] concerns the target T5, Cre recombinase monomer with R292S mutation.
T5 chain: T1 chain with E292S

Data set [6] concerns the target T6, Cre recombinase monomer with R292N mutation.
T6 chain: T1 chain with E292N

Data set [7] addresses T7, Cre recombinase monomer with R292T mutation.
T7 chain: T1 chain with E292T

For data set [8], the target named is T8, Cre recombinase monomer with R292I mutation.
T8 chain: T1 chain with E292I

For data set [9], the target named is T9, Cre recombinase monomer with R292M mutation.
T9 chain: T1 chain with E292M

In data set [10] the target is T10, Cre recombinase monomer with Y324F mutation.
T10 chain: T1 chain with E292R, Y324F

In data set [11] the target is T11, Cre recombinase monomer with Y324W mutation.
T11 chain: T1 chain with E292R, Y324W

B1: Cre recombinase monomer with E176H mutation (protein)
chain: T1 chain with E176H, E292R
Regarding B1, the “Median dimer activity (recombination on loxP)” value (from here on “Median dimer activity”) in data set [1] amounted to 38%; in [2], 33%; in data set [3], 51%; in data set [4], 55%; in [5], 68%.

B2: Cre recombinase monomer with E176V mutation (protein)
chain: T1 chain with E176V, E292R
B2: the “Median dimer activity” value in [6] is given as 31%; in [7], 45%; in [8] it was 33%; in data set [5], 28%.

B3: Cre recombinase monomer with E176I mutation (protein)
chain: T1 chain with E176I, E292R
On to B3, for which the “Median dimer activity” value came out at 43% in [9]; 67% in data set [10]; 36% in data set [3]; 50% in data set [11]; 40% in data set [5].
